Assay results as given in doi:10.1101/2022.07.10.499282.

Biological target: CXCL4 (platelet factor 4, PF4) (human)
Experiment: AUC

**Q.** With “CXCL4 (platelet factor 4, PF4) (natural protein)” as the substance, how does the stoichiometry N read?
**A.** 4
